According to the supplement of paper PMC10065799, “High-throughput profiling of sequence recognition by tyrosine kinases and SH2 domains using bacterial peptide display” (eLife, 2023):

Key:
AncSZ = test: phosphorylation enrichment, bacterial display (enrichment ratio); higher = better substrate or ligand; peptides without Tyr show the background
EPHB1 = EPHB1 (UniProt P54762); test: as above
EPHB2 = EPHB2 (UniProt P29323); test: as above
FGFR1 = FGFR1 (UniProt P11362); test: as above
FGFR3 = FGFR3 (UniProt P22607); test: as above
Fer (mouse) = test: as above
Fes = Fes (UniProt P07332); test: as above
Fyn = Fyn (UniProt P06241); test: as above
Hck = Hck (UniProt P08631); test: as above
Jak2 = Jak2 (UniProt O60674); test: as above
MERTK = MERTK (UniProt Q12866); test: as above
c-Abl (mouse) = test: as above
c-Src = test: as above
Grb2 SH2 = Grb2 SH2 (UniProt P62993); test: SH2 binding enrichment of the phosphorylated peptide, bacterial display (enrichment ratio); higher = better substrate or ligand; peptides without Tyr show the background
SHP2-C SH2 = test: as above
c-Src SH2 = test: as above
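For SH2 binding enrichment of the phosphorylated peptide, bacterial display in this document: peptide library displayed on the E. coli surface as eCPX fusions, selected cells deep-sequenced, score is each peptide's frequency after selection divided by its frequency in the input.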
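For phosphorylation enrichment, bacterial display in this document: 11-residue human phosphosite peptides and single-mutation variants displayed on the E. coli surface, counted by deep sequencing, each peptide's frequency after selection divided by its frequency in the unselected input library; frequency after pTyr selection over input frequency; kinase dosed for 20-30% of maximal phosphorylation in three min.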

Sequence of EPHB1 (P54762 whole entry, looked up): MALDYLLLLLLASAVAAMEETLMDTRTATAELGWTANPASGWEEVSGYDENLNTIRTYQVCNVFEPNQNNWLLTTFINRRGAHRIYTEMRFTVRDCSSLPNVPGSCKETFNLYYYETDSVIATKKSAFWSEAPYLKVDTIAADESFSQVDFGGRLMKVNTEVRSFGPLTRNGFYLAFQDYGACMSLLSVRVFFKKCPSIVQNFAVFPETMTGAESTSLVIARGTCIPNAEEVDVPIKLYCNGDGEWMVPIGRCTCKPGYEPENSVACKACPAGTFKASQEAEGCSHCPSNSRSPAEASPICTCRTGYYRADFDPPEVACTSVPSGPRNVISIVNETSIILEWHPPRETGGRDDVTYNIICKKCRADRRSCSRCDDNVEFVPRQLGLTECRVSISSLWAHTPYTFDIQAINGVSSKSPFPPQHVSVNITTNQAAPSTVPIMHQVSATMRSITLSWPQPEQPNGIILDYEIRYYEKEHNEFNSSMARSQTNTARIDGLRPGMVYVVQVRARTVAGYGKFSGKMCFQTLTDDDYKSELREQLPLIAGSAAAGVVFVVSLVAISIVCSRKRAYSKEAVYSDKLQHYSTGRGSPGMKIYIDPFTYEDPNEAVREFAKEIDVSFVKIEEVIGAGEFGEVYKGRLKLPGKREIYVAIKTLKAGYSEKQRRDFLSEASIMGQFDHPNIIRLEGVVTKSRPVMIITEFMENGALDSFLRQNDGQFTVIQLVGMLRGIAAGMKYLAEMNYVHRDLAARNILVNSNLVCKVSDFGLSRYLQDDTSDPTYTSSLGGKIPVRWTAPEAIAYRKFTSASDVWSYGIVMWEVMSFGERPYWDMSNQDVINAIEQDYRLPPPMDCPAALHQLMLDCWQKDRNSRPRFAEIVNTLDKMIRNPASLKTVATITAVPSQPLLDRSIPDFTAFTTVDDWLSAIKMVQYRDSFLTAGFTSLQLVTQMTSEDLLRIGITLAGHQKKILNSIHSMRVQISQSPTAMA
Sequence of Fes (P07332 whole entry, looked up): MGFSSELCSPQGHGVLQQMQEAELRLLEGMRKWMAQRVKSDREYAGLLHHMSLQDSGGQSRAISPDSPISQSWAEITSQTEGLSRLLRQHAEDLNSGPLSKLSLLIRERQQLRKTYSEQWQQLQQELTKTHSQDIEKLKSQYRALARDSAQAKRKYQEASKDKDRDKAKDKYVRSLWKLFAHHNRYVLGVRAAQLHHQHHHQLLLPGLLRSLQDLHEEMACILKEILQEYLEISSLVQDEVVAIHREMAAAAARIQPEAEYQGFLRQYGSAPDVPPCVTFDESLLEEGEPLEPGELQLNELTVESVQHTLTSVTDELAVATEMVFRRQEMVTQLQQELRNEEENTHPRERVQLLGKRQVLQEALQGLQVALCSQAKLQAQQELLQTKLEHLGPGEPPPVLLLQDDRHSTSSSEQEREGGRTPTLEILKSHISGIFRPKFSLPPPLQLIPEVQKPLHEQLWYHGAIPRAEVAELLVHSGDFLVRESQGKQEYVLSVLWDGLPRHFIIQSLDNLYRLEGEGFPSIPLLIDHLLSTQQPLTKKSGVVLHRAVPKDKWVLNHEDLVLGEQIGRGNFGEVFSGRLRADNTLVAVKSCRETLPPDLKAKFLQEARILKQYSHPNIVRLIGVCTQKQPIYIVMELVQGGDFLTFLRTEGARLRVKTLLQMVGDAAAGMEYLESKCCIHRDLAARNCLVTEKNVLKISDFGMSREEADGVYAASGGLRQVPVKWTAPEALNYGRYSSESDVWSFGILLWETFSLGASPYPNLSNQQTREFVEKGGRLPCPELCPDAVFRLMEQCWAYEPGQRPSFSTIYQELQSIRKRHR
Sequence of MERTK (Q12866 whole entry, looked up): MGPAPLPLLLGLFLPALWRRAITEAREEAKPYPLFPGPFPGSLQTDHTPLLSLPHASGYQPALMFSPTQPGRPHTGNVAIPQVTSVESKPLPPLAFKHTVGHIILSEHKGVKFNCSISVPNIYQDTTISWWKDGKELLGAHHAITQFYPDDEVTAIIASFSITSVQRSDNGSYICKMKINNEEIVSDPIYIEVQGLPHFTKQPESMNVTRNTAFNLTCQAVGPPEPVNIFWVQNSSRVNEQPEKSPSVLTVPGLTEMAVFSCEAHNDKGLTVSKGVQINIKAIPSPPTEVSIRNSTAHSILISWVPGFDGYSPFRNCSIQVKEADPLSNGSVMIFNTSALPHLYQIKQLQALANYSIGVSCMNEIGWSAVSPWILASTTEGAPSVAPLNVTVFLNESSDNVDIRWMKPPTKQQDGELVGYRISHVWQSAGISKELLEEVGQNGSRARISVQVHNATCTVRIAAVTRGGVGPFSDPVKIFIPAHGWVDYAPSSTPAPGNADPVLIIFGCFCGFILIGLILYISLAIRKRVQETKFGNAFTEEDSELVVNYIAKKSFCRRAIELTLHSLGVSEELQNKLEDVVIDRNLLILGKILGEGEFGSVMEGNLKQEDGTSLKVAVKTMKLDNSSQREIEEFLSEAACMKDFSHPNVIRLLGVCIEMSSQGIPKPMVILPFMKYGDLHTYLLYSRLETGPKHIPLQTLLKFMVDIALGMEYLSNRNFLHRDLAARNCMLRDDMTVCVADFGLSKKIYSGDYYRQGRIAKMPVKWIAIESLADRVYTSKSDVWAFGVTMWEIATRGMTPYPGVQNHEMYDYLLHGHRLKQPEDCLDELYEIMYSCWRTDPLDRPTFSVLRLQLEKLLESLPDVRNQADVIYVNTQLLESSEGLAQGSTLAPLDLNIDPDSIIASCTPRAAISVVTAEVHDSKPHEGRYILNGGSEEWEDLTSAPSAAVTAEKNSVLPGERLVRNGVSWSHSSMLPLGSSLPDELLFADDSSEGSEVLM
Sequence of FGFR3 (P22607 whole entry, looked up): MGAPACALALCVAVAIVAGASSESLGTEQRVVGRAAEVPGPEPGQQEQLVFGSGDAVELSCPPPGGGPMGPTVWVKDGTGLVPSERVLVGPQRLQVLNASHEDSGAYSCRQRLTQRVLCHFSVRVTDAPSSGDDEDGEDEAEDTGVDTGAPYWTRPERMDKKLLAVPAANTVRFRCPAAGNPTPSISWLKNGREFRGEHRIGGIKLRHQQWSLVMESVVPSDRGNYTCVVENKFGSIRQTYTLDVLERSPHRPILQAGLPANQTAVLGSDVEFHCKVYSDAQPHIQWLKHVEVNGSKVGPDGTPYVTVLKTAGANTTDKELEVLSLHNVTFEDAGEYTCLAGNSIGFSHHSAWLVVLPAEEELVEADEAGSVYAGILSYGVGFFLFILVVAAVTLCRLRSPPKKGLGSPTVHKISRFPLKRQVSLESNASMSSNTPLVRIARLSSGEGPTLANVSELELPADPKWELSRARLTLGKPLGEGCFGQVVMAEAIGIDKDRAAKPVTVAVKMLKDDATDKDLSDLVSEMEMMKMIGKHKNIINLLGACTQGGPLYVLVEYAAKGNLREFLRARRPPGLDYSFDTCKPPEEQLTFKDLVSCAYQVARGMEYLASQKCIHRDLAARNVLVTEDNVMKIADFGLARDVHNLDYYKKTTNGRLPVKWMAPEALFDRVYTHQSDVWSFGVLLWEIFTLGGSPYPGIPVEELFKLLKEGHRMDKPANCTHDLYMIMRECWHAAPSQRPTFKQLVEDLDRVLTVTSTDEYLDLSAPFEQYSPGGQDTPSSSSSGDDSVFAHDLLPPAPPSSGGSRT
Sequence of Jak2 (O60674 whole entry, looked up): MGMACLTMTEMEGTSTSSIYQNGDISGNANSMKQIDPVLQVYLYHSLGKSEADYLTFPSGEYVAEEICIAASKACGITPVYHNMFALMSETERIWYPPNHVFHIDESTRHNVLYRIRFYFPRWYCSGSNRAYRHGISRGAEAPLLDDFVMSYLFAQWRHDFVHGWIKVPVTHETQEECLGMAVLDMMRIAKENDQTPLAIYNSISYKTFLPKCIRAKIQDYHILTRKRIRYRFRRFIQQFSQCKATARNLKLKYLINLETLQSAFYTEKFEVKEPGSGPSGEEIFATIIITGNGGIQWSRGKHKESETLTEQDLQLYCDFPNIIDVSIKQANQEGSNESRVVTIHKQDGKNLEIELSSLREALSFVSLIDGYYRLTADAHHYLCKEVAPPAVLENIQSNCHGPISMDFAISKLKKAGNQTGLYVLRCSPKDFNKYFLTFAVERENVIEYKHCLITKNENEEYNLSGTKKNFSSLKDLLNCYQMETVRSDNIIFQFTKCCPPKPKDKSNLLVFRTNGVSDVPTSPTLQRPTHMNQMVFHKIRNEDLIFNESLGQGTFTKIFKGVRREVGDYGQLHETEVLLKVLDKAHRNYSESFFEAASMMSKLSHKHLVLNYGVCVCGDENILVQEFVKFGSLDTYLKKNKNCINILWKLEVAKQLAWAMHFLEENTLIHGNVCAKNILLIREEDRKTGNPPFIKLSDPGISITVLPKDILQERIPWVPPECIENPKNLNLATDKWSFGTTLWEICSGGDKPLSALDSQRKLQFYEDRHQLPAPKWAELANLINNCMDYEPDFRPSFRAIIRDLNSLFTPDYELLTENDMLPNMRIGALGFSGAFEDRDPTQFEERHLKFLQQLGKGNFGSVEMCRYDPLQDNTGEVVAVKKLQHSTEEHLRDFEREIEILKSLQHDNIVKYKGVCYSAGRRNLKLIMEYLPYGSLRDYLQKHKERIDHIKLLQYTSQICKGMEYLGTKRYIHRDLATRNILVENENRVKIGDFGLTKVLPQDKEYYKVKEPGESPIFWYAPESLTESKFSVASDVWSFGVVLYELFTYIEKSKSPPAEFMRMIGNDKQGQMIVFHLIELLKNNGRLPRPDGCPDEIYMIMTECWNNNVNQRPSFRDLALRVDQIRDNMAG
Sequence of Grb2 SH2 (P62993 whole entry, looked up): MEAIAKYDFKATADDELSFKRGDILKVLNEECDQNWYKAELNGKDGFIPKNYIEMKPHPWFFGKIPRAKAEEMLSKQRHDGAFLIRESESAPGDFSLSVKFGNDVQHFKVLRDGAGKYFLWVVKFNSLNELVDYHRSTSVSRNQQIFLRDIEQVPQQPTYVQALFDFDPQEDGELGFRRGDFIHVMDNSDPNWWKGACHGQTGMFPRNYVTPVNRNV

Row | Sequence | phosphorylation enrichment (AncSZ) | phosphorylation enrichment (EPHB1) | phosphorylation enrichment (EPHB2) | phosphorylation enrichment (FGFR1) | phosphorylation enrichment (FGFR3) | phosphorylation enrichment (Fer (mouse)) | phosphorylation enrichment (Fes) | phosphorylation enrichment (Fyn) | phosphorylation enrichment (Hck) | phosphorylation enrichment (Jak2) | phosphorylation enrichment (MERTK) | phosphorylation enrichment (c-Abl (mouse)) | phosphorylation enrichment (c-Src) | SH2 binding enrichment (Grb2 SH2) | SH2 binding enrichment (SHP2-C SH2) | SH2 binding enrichment (c-Src SH2)
1 | MGGSVYFSFPD [HIKESHI_Y55_YF] | 1.55 | 1.09 | 0.991 | 3.19 | 2.85 | 0.55 | 1.32 | 4.01 | 2.64 | 1.94 | 3.89 | 1.12 | 5.05 | 0.892 | 0.908 | 0.662
2 | DQGEQYKKELE [LMNA_Y259_V256G] | 1.39 | 0.801 | 0.676 | 0.464 | 0.682 | 0.642 | 1.39 | 0.488 | 0.535 | 1.31 | 0.467 | 1.15 | 0.522 | 0.844 | 0.716 | 0.517
3 | IKNPQYFSDAC [NTRK1_Y496_E492K] | 0.648 | 0.37 | 0.415 | 0.548 | 0.591 | 0.37 | 0.74 | 0.464 | 0.418 | 0.634 | 0.344 | 0.464 | 0.473 | 0.909 | 0.895 | 0.524
4 | TNFPLYLRSLE [MTM1_Y71_R69P_YF] | 0.716 | 0.685 | 0.51 | 0.449 | 0.544 | 0.401 | 0.761 | 0.413 | 0.505 | 1.13 | 0.378 | 0.493 | 0.492 | 0.883 | 0.976 | 0.675
5 | VLALWYYYLTN [ZDHHC23_Y127_H132N] | 1.29 | 1.1 | 0.851 | 8.15 | 6.91 | 0.766 | 1.81 | 0.611 | 0.738 | 3.09 | 3.86 | 1.05 | 1.35 | 1.24 | 1.22 | 1.02
6 | RKGGSYTQAAS [HLA-A_Y344] | 0.631 | 0.446 | 0.399 | 0.442 | 0.563 | 0.699 | 0.885 | 0.465 | 0.443 | 0.637 | 0.461 | 0.902 | 0.384 | 1.07 | 0.584 | 1.06
7 | PELINYHQHFS [BTK_Y361_N365Y_YF] | 0.508 | 0.723 | 0.44 | 0.591 | 0.799 | 0.366 | 0.869 | 0.547 | 0.513 | 0.869 | 0.401 | 0.711 | 0.38 | 0.895 | 0.934 | 0.557
8 | TILEHYRRTHC [MYBPC3_Y1119_V1115I] | 0.809 | 0.465 | 0.575 | 0.511 | 0.619 | 0.439 | 1.08 | 0.378 | 0.524 | 0.781 | 0.59 | 0.609 | 0.505 | 0.874 | 0.939 | 0.663
9 | AGIKAYQSCLQ [ADGRA2_Y377_T375K] | 0.786 | 0.583 | 0.55 | 0.453 | 0.572 | 0.424 | 0.983 | 0.383 | 0.537 | 0.841 | 0.558 | 0.85 | 0.55 | 0.767 | 0.64 | 0.57
10 | CTTIHHNFMCN [TP53_Y234_Y234H_YF] | 0.713 | 0.482 | 0.51 | 0.525 | 0.641 | 0.483 | 0.844 | 0.453 | 0.436 | 0.606 | 0.377 | 0.478 | 0.362 | 1.36 | 0.933 | 1.36
11 | THQNSYQPGRK [CEFIP_Y210] | 0.561 | 0.233 | 0.366 | 0.479 | 0.34 | 0.303 | 0.436 | 0.36 | 0.375 | 0.415 | 0.34 | 0.422 | 0.299 | 0.903 | 0.98 | 0.673
12 | SPPPAYTPMSG [ERBB4_Y1056] | 0.522 | 0.438 | 0.429 | 0.41 | 0.457 | 0.379 | 0.503 | 0.483 | 0.45 | 0.503 | 0.529 | 0.459 | 0.388 | 0.846 | 0.811 | 0.92
13 | QNTVDYYDLYG [PTPN11_Y62_G60V] | 2.72 | 4.44 | 3.38 | 18.4 | 15.4 | 1.1 | 1.66 | 6.01 | 6.03 | 2.63 | 1.33 | 1.38 | 5.35 | 0.892 | 0.502 | 0.816
14 | PKEQKYSFLQN [GH1_Y68] | 0.972 | 0.465 | 0.951 | 0.719 | 0.978 | 0.627 | 0.862 | 0.692 | 0.577 | 0.688 | 1.18 | 0.625 | 0.554 | 0.909 | 1.06 | 1.05
15 | LFMGDYVGRGY [PPP2CA_Y86_D88G] | 1.53 | 2.15 | 1.72 | 1.17 | 1.19 | 0.713 | 1.21 | 1.37 | 1.75 | 2.97 | 0.847 | 0.953 | 1.53 | 0.854 | 0.596 | 0.536
16 | LVLIKYLPEWT [PSEN1_Y240_F237L] | 1.19 | 0.827 | 0.611 | 0.547 | 1.08 | 0.597 | 1.43 | 0.501 | 0.569 | 1.44 | 0.56 | 1.07 | 0.463 | 2.06 | 1.99 | 1.21
17 | PSALGYSPSLH [LLGL2_Y40_R45H] | 0.639 | 0.573 | 0.436 | 0.48 | 0.553 | 0.444 | 0.823 | 0.458 | 0.432 | 0.71 | 0.621 | 0.864 | 0.631 | 0.827 | 0.695 | 0.466

Row | Sequence | phosphorylation enrichment (AncSZ) | phosphorylation enrichment (EPHB1) | phosphorylation enrichment (EPHB2) | phosphorylation enrichment (FGFR1) | phosphorylation enrichment (FGFR3) | phosphorylation enrichment (Fer (mouse)) | phosphorylation enrichment (Fes) | phosphorylation enrichment (Fyn) | phosphorylation enrichment (Hck) | phosphorylation enrichment (Jak2) | phosphorylation enrichment (MERTK) | phosphorylation enrichment (c-Abl (mouse)) | phosphorylation enrichment (c-Src) | SH2 binding enrichment (Grb2 SH2) | SH2 binding enrichment (SHP2-C SH2) | SH2 binding enrichment (c-Src SH2)
18 | KAIMTYVFSFY [ACTN4_Y260_S262F] | 1.19 | 0.63 | 0.592 | 0.559 | 0.794 | 0.54 | 1.27 | 0.438 | 0.464 | 1.06 | 0.436 | 0.966 | 0.507 | 0.987 | 1.08 | 0.561
19 | VDGSLYETHPQ [HK1_Y417_K418E] | 1.26 | 1.5 | 2.37 | 0.441 | 0.607 | 9.06 | 0.861 | 1.13 | 2.09 | 0.653 | 1.18 | 0.541 | 0.918 | 0.828 | 0.661 | 0.503
20 | LKGQVYILGLE [ASS1_Y359_R363L] | 1.37 | 0.971 | 0.658 | 0.467 | 0.961 | 0.664 | 1.99 | 0.49 | 0.985 | 1.23 | 0.518 | 0.759 | 0.633 | 0.935 | 1.02 | 0.597
21 | LKALHYMVQTS [SACS_Y3367] | 0.808 | 0.546 | 0.512 | 0.39 | 0.459 | 0.428 | 0.858 | 0.362 | 0.43 | 0.653 | 0.385 | 0.533 | 0.398 | 0.77 | 0.794 | 0.721
22 | KVPELYEIHTE [BCR_Y554_K558T] | 1.19 | 0.94 | 0.945 | 0.578 | 0.68 | 0.74 | 0.984 | 0.629 | 0.745 | 0.827 | 0.508 | 0.712 | 0.546 | 0.969 | 0.696 | 0.525
23 | LFEDRYLLGTS [ASS1_Y87_YF] | 2.21 | 2.81 | 1.98 | 1.26 | 2.45 | 1.12 | 1.8 | 1.29 | 1.12 | 0.885 | 0.863 | 0.41 | 0.258 | 0.918 | 0.537 | 0.529
24 | CEHRGSLFLAI [TEK_Y897_Y897S_YF] | 1.03 | 0.55 | 0.564 | 0.501 | 0.725 | 0.533 | 1.16 | 0.427 | 0.457 | 1.04 | 0.422 | 0.944 | 0.457 | 0.989 | 0.672 | 0.567
25 | LQLLGYRPVYS [CHST6_Y358] | 1.29 | 0.954 | 0.873 | 0.718 | 0.91 | 0.49 | 1.24 | 0.916 | 0.581 | 0.979 | 0.426 | 0.911 | 0.559 | 1.02 | 0.962 | 0.783
26 | DTDSSYCIPIA [GAB1_Y373_T377I] | 2.21 | 0.829 | 0.721 | 0.586 | 0.706 | 0.483 | 1.05 | 0.467 | 0.413 | 0.925 | 1.16 | 0.82 | 0.435 | 0.88 | 0.441 | 0.551
27 | GADDSYFTARS [ZAP70_Y492_YF] | 0.657 | 0.299 | 0.44 | 0.557 | 0.51 | 0.417 | 0.79 | 0.457 | 0.444 | 0.577 | 0.406 | 0.401 | 0.417 | 0.723 | 0.566 | 0.402
28 | KLIMEYLPYGS [JAK2_Y931] | 0.989 | 0.493 | 0.632 | 0.543 | 0.68 | 0.405 | 1.02 | 0.518 | 0.51 | 0.945 | 0.395 | 0.62 | 0.564 | 0.845 | 0.742 | 0.762
29 | SFPPTYRYERG [INPPL1_Y661] | 0.73 | 0.362 | 0.43 | 0.498 | 0.49 | 0.29 | 0.592 | 0.431 | 0.437 | 0.449 | 0.505 | 0.373 | 0.427 | 0.831 | 0.605 | 0.489
30 | GKMSSYAFFVQ [HMGB1_Y16] | 1.01 | 0.809 | 0.711 | 0.603 | 0.741 | 0.474 | 1.14 | 0.505 | 0.513 | 1.01 | 1.29 | 0.849 | 0.562 | 1.13 | 1.51 | 0.982
31 | EQKKFYNAVKK [SCN5A_Y1495_M1498V_YF] | 0.499 | 0.417 | 0.407 | 0.35 | 0.35 | 0.402 | 0.57 | 0.392 | 0.429 | 1.06 | 0.482 | 0.531 | 0.461 | 0.966 | 0.646 | 0.648
32 | DLAGRYYALRS [CKB_Y173_K177R] | 0.729 | 0.352 | 0.439 | 0.963 | 0.811 | 0.477 | 0.649 | 0.484 | 0.681 | 1.65 | 2.19 | 0.544 | 0.487 | 0.775 | 0.9 | 1.87
33 | EKNANYKEGTF [CLRN1_Y171_I168N_YF] | 0.715 | 0.346 | 0.445 | 0.401 | 0.46 | 0.397 | 0.757 | 0.452 | 0.381 | 0.635 | 0.425 | 0.647 | 0.389 | 0.944 | 0.874 | 0.503
